Source: patent publication US20260167959A1, “APTAZYME-BASED REGULATABLE GENE EXPRESSION SYSTEMS” (REJUVENATE BIO INC, priority 2022, published 2026)

B1: RA302 (nucleic acid)
DNA: GCGCGTCCTGGATTCGCGGAAACGCGTACATCCAGCTGACGAGAATACCAGCATCGTCTTGATGCCCTTGGAAGTCTAGTCCCAAATAGGACGAAACGCGC
modifications: expressed or natural sequence
B2: RA303 (nucleic acid)
DNA: GCGCCGGAATACCAGCATCGTCTTGATGCCCTTGGAAGTCCGGTCCTGGATTCGCGGAAACGCGTACATCCAGCTGACGAGTCCCAAATAGGACGAAACGCGC
modifications: expressed or natural sequence
B3: RA308 (nucleic acid)
DNA: GCGCGTCCTGGATTCGCGGAAACGCGTACATCCAGCAGTGATACCAGCATCGTCTTGATGCCCTTGGCAGCACTTGACGAGTCCCAAATAGGACGAAACGCGC
modifications: expressed or natural sequence
B4: RA307 (nucleic acid)
DNA: GCGCGTCCTGGATTCGCGGAAACGCGTACATCCAGCTGACGAGTGAGAATACCAGCATCGTCTTGATGCCCTTGGAAGTCTCCCCAAATAGGACGAAACGCGC
modifications: expressed or natural sequence
B5: RA304 (nucleic acid)
DNA: GCGCGAGAATACCAGCATCGTCTTGATGCCCTTGGAAGTCTCGCGTCCTGGATTCGCGGAAACGCGTACATCCAGCTGACGAGTCCCAAATAGGACGAAACGCGC
modifications: expressed or natural sequence
B6: RA306 (nucleic acid)
DNA: GCGCGGGAATACCAGCATCGTCTTGATGCCCTTGGAAGTCCTCCTGGATTCGCGGAAACGCGTACATCCAGCTGACGAGTCCCAAATAGGACAAAACGCGC
modifications: expressed or natural sequence
B7: RA305 (nucleic acid)
DNA: GCGCGTCCTGGATTCGCGGAAACGCGTACATCAGTGATACCAGCATCGTCTTGATGCCCTTGGCAGCACTCAGCTGACGAGTCCCAAATAGGACGAAACGCGC
modifications: expressed or natural sequence
B8: RA300 (nucleic acid)
DNA: GCGCGTCCTGGCGAGAATACCAGCATCGTCTTGATGCCCTTGGAAGTCTCGATTCGCGGAAACGCGTACATCCAGCTGACGAGTCCCAAATAGGACGAAACGCGC
modifications: expressed or natural sequence
B9: RA030 (nucleic acid)
DNA: GCGCGTCCTGGATTCGCGGAAACGCGTACATCCAGCTGACGAGTCCCAAATAGGACGAAACGAGAATACCAGCATCGTCTTGATGCCCTTGGAAGTCTCGCGC
modifications: expressed or natural sequence
B10: RA029 (nucleic acid)
DNA: GCGCGTCCTGGATTCGCGGAAACGGGAATACCAGCATCGTCTTGATGCCCTTGGAAGTCCCGTACATCCAGCTGACGAGTCCCAAATAGGACGAAACGCGC
modifications: expressed or natural sequence
B11: RA299 (nucleic acid)
DNA: GCGCGTAGTGATACCAGCATCGTCTTGATGCCCTTGGCAGCACTCCTGGATTCGCGGAAACGCGTACATCCAGCTGACGAGTCCCAAATAGGACGAAACGCGC
modifications: expressed or natural sequence
B12: RA301 (nucleic acid)
DNA: GCGAGTGATACCAGCATCGTCTTGATGCCCTTGGCAGCACTCGTCCTGGATTCGCGGAAACGCGTACATCCAGCTGACGAGTCCCAAATAGGACGAAACGCGC
modifications: expressed or natural sequence

These molecules were tested on Renilla luciferase RNA (assay: Barcoded aptazyme variant library screen: un-cleaved Renilla luciferase RNA by barcode read counts, HEK293-T cells). Settings: un-cleaved Renilla luciferase RNA by barcode read counts; with 1 mM theophylline (ON) over without theophylline (OFF); HEK293-T cells; triplicate.
Assay type: cell-based
From the text: Based on the findings from Example 1, an aptazyme variant library was generated from the T3H48 ribozyme with one of seven variant theophylline aptamers inserted sequentially after each nucleotide of the DNA sequence encoding the T3H48 ribozyme sequence. […] The seven variant theophylline aptamers vary in their communication channels, which are the ribonucleotides of the aptamer that attach to the ribozyme sequence (see, Table 2).
The library was barcoded with unique sequences of nine nucleotides flanked by forward and reverse primer amplification sequences.
The aptazyme library was then PCR amplified and cloned into the psiCHECK™-2 dual luciferase vector in the 3′ UTR of the Renilla luciferase gene. […] The next day, the cells were isolated followed by DNA and RNA extraction using standard methods. The purified RNA was then converted to cDNA and the barcoded portion of the aptazyme library was PCR amplified. Similarly, the DNA was PCR amplified and all the samples were sequenced. All experimental conditions (with theophylline and without theophylline) were performed in triplicate. The read count for each barcode was determined with a custom build code and the data was normalized to identify the un-cleaved fractions of the Renilla luciferase RNA from cells that were cultured in the presence or absence of theophylline for each aptazyme, which was used to obtain the fold-change between ON- and OFF-states (FIG. 2).

Molecule | Fold change in RNA expression between the ON state and the OFF state
B1 | 1.0
B2 | 1.0
B3 | 1.0
B4 | 1.0
B5 | 1.0
B6 | 1.0
B7 | 1.0

Same assay, conditions: un-cleaved Renilla luciferase RNA, HEK293-T cells cultured with 1 mM theophylline (ON) over without theophylline (OFF); barcode read counts, triplicate

Molecule | Fold change in RNA expression between the ON state and the OFF state [fold]
B8 | 1.0
B9 | 2.3
B10 | 2.3
B11 | 1.0
B12 | 1.0
